The source of these data is patent publication US20240318262A1 (TOHOKU UNIVERSITY, published 2024).

This assay addresses T1, human LILRB4 in TIL regions of lung squamous cell carcinoma tissue specimens (human, UniProt Q8NHJ6 24-258).
T1 construct: Native LILRB4 on cells in patient tissue sections; also called immunosuppressive receptor LILRB4
Description: immunohistochemical staining of lung squamous cell carcinoma tissue specimens. The method, then:
Immunohistochemical staining was performed using the anti-human LILRB4 monoclonal antibody #10 obtained in Experimental Example 6, which inhibits binding between fibronectin and human LILRB4, on each of the lung squamous cell carcinoma tissue specimens whose LILRB4 expression was previously determined to be strongly positive (High), medium positive (Medium) or weakly positive (Low), with goat anti-human LILRB4 polyclonal antibodies (available from R & D Systems). The results are illustrated in FIG. 3.

B1: anti-human LILRB4 monoclonal antibody #10 (antibody, V domains shown)
VH: EVMLVESGGGLVQPGGSRKLSCAASGFTFSSFGMHWVRQAPEKGLEWVAYISSGSSTIYYVDTVKGRFTISRDNPKNTLFLQMTSLRSEDTAMYYCARSTGTGAMDYWGQGTSVTVSS
VL: DIQMTQTTSSLSASLGDRVTISCRASQDISNYLNWYQQKPDGTVKLLIYYTLRLYSGVPSRFSGSGSGTDYSLTISNLEQEDIATYFCQQGNTLPWTFGGGTKLEIK
notes: In the reporter assay it was used as hybridoma culture supernatant; also called anti-LILRB4 monoclonal antibody
Regarding B1, the binding result is recorded as “binds”.
